How the values were obtained:
[1] = target: T1, NAP-2; experiment: MSD electrochemiluminescence assay; chemokine coated at 1 µg/mL, 18V4F at 3 µg/mL; background = BSA
T1 construct: also called NAP-2/CXCL7; CXCL7
T1 chemokine: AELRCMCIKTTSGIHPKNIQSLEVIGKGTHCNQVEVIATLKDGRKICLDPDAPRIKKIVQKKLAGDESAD

[2] = target: T2, Groβ; experiment: as above
T2 construct: also called Gro-β/CXCL2; CXCL2

[3] = target: T3, SDF; experiment: as above
T3 construct: also called SDF-1/CXCL12; CXCL12

[4] = target: T4, ENA-78; experiment: as above
T4 construct: also called ENA-78/CXCL5; CXCL5

[5] = target: T5, I-TAC; experiment: as above
T5 construct: also called I-TAC/CXCL11; CXCL11
T5 chemokine: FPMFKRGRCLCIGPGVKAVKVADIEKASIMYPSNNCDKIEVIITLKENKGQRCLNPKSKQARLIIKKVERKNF

[6] = target: T6, Groγ; experiment: as above
T6 construct: also called Gro-γ/CXCL3; CXCL3

[7] = target: T7, BRAK; experiment: as above
T7 construct: also called BRAK/CXCL14; CXCL14
T7 chemokine: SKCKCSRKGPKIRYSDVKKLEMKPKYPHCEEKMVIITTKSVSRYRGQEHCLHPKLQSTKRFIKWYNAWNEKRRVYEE

[8] = target: T8, GCP2; experiment: as above
T8 construct: also called GCP-2/CXCL6; CXCL6

[9] = target: T9, IL-8; experiment: as above
T9 construct: also called IL-8/CXCL8; CXCL8

[10] = target: T10, XCL1; experiment: as above
T10 chemokine: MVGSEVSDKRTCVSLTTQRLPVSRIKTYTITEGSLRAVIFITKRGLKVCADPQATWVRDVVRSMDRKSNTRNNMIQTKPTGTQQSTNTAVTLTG

[11] = target: T11, BCA1; experiment: as above
T11 construct: also called BCA-1/BLC/CXCL13; CXCL13
T11 chemokine: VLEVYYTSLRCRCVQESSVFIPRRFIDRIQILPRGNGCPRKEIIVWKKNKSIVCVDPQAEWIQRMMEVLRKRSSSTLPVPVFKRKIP

[12] = target: T12, Groα; experiment: as above
T12 construct: also called Gro-α/CXCL1; CXCL1

[13] = target: T13, CTACK; experiment: as above
T13 construct: also called CTACK/CCL27; CCL27
T13 chemokine: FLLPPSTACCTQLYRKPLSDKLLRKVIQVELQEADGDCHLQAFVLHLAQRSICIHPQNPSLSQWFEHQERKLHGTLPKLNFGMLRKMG

[14] = target: T14, PF4; experiment: as above
T14 construct: also called PF4/CXCL4; CXCL4
T14 chemokine: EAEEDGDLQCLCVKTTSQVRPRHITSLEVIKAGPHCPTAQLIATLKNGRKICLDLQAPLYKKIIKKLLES

[15] = target: T15, Eotaxin; experiment: MSD electrochemiluminescence assay; chemokine coated at 1 µg/mL, 7D12A at 3 µg/mL; background = BSA
T15 construct: also called Eotaxin/CCL11; CCL11

Measured: binding result

T9 sequence (chemokine, as listed by the source): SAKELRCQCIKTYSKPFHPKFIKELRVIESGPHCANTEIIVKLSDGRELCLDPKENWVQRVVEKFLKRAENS
T6 sequence (chemokine, as listed by the source): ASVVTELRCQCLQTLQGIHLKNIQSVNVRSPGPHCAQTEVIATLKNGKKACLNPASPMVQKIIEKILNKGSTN
T2 sequence (chemokine, as listed by the source): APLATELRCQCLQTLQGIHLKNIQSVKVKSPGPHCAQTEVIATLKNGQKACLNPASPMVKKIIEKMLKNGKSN
T8 sequence (chemokine, as listed by the source): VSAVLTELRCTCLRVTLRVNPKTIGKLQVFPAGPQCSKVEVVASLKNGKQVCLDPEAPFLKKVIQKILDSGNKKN
T4 sequence (chemokine, as listed by the source): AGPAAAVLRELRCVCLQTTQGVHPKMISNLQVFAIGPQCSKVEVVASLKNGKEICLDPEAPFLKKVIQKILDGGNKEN
T15 sequence (chemokine, as listed by the source): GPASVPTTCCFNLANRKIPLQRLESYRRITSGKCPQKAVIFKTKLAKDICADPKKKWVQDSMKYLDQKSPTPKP
T3 sequence (chemokine, as listed by the source): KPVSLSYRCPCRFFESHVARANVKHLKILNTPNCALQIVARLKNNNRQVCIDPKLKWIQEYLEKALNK
T12 sequence (chemokine, as listed by the source): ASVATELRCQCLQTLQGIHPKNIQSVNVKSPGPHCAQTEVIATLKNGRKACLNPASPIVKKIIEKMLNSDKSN

B1: monoclonal antibody 18V4F (antibody, V domains shown)
VH: QVQLKESGPGLVAPSQSLSITCTVSGFSLTGYGIHWVRQPPGKGLEWLGVIWPGGGTNYNSALMSRLSISKDNSKSQVFLKMNSLQTDDTAMYYCARGPLITTEVSMDYWGQGTSVTVSS
VL: QAVVTQESALTTSPGETVTLTCRSNTGAVTTSNYANWVQEKPDHLFTGLIGGTNNRAPGVPARFSGSLIGDKAALTITGAQTEDEAIYFCALWYSNHWVFGGGTKLTVLG
notes: also called MAb 18V4F
not listed: [15]
no binding (tested: 3 µg/mL): all other assays above

B2: monoclonal antibody 7D12A (antibody, V domains shown)
VH: EVHLQESGPSLVKPSQTLSLTCSVTGDSITNGYWNWIRKFPGNKLDYMGYISYDGNTYYNPSLKSRFSITRDTSKNQYYLQLNSVTTEDTATYYCSRGDYGTYVMDYWGQGTSVTVSS
VL: NIVLTQSPVSLAVSLGQRATISCRASESVDSHGNSFMHWYQQKPGQPPKLLIYLASNLESGVPARFTGGGSGSDFTLTIDPVEADDVGTYYCQQNNEDPYTFGGGTKLEIK
notes: also called MAb 7D12A
no binding (tested: 3 µg/mL): [15]

Source: patent US20150166647A1 (VLST, published 2015)
